Experiments:
[1] = target: LIFR labelled with fluorescent dye (MST target) (UniProt P42702 45-1097, fluorescent dye, NHS chemistry); test: MST
Human LIFR-Fc = target: T1, Human LIFR-Fc (human, UniProt P42702 45-833); test: SPR
T1 sequence (looked up): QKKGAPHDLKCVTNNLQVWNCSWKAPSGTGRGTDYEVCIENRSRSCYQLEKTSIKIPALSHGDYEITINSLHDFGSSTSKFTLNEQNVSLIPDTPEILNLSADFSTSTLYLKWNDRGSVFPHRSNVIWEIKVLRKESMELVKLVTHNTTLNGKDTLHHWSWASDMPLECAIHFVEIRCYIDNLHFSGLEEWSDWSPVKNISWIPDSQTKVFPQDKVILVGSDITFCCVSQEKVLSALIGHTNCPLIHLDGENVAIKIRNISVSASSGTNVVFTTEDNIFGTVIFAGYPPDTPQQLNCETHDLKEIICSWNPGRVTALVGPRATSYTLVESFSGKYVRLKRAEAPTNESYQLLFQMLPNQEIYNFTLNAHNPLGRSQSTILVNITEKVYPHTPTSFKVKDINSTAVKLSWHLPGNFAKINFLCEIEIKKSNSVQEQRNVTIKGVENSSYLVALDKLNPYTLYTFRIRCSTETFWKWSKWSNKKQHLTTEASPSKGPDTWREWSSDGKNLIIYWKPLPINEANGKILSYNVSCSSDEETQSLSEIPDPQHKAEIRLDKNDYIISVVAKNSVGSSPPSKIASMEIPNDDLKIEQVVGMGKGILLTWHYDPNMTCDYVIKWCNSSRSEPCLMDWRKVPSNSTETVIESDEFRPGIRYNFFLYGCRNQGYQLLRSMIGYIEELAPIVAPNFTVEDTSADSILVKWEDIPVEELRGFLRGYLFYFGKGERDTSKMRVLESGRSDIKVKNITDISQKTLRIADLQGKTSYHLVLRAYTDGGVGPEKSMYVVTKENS

B1: Recombinant human leukemia inhibitory factor (LIF) (ligand)
chain: not shown
For B1, the Kd [1] was 0.00136 µM and the Kd (Human LIFR-Fc) was 7 µM.

From PMC6677593 (Molecular cancer therapeutics, 2019)
